{"source": "patent US20030049646A1", "about": "(METROHEALTH SYSTEM, published 2003)", "binders": {"B1": {"name": "HERG N-terminus (amino acids 1-396), in pGBT9 (other, UniProt P04386 1-147, looked up)", "chain": "MKLLSSIEQACDICRLKKLKCSKEKPKCAKCLKNNWECRYSPKTKRSPLTRAHLTEVESRLERLEQLFLLIFPREDLDMILKMDSLQDIKALLTGLFVQDNVNKDAVTDRLASVETDMPLTLRQHRISATSSSEESSNKGQRQLTVSMPVRRGHVAPQNTFLDTIIRKFEGQSRKFIIANARVENCAVIYCNDGFCELCGYSRAEVMQRPCTCDFLHGPRTQRRAAAQIAQALLGAEERKVEIAFYRKDGSCFLCLVDVVPVKNEDGAVIMFILNFEVVMEKDMVGSPAHDTNHRGPPTSWLAPGRAKTFRLKLPALLALTARESSVRSGGAGGAGAPGAVVVDVDLTPAAPSSESLALDEVTAMDNHVAGLGPAEERRALVGPGSPPRSAPGQLPSPRAHSLNPDASGSSCSLARTRSRESCASVRRASSADDIEAMRAGVLPPPPRHASTGAMHPLRSGLLNSTSDSDLVRYRTISKIPQITLNFVDLKGDPFLASPTSDREIIAPKIKERTHNVTEKVTQVLSLGADVLPEYKLQAPRIH", "notes": "also called N-terminus of the delayed rectifier K+ channel, HERG"}, "B2": {"name": "Kv2.1 N-terminus (amino acids 1-168), in pGBT9 (other, UniProt P04386 1-147, looked up)", "chain": "MKLLSSIEQACDICRLKKLKCSKEKPKCAKCLKNNWECRYSPKTKRSPLTRAHLTEVESRLERLEQLFLLIFPREDLDMILKMDSLQDIKALLTGLFVQDNVNKDAVTDRLASVETDMPLTLRQHRISATSSSEESSNKGQRQLTVSMPAGMTKHGSRSTSSLPPEPMEIVRSKACSRRVRLNVGGLAHEVLWRTLDRLPRTRLGKLRDCNTHDSLLQVCDDYSLEDNEYFFDRHPGAFTSILNFYRTGRLHMMEEMCALSFSQELDYWGIDEIYLESCCQARYHQKKEQMNEELKREAETLREREGEEFDNTCC"}, "B3": {"name": "KChAP-Y (partial clone of KChAP from W310 to the C-terminus), in pGAD10 (other, not shown: large carriers)", "chain": "WTCPVCDKKAPYESLIIDGLFMEILNSCSDCDEIQFMEDGSWCPMKPKKEASEVCPPPGYGLDGLQYSPVQEGNQSENKKRVEVIDLTIESSSDEEDLPPTKKHCPVTSAAIPALPGSKGALTSGHQPSSVLRSPAMGTLGSDFLSSLPLHEYPPAFPLGADIQGLDLFSFLQTESQHYSPSVITSLDEQDTLGHFFQFRGTPPHFLGPLAPTLGSSHRSATPAPAPGRVSSIVAPGSSLREGHGGPLPSGPSLTGCRSDVISLD", "notes": "also called KChAP-Y plasmid"}, "B4": {"name": "Kvβ1C (carboxyl terminal 329 amino acids of the Kvβ1 subfamily), in pGBT9 (other, UniProt P04386 1-147, looked up)", "chain": "MKLLSSIEQACDICRLKKLKCSKEKPKCAKCLKNNWECRYSPKTKRSPLTRAHLTEVESRLERLEQLFLLIFPREDLDMILKMDSLQDIKALLTGLFVQDNVNKDAVTDRLASVETDMPLTLRQHRISATSSSEESSNKGQRQLTVSHRNLGKSGLRVSCLGLGTWVTFGGQISDEVAERLMTIAYESGVNLFDTAEVYAAGKAEVILGSIIKKKGWRRSSLVITTKLYWGGKAETERGLSRKHIIEGLKGSLQRLQLEYVDVVFANRPDSNTPMEEIVRAMTHVINQGMAMYWGTSRWSAMEIMEAYSVARQFNMIPPVCEQAEYHLFQREKVEVQLPELYHKIGVGAMTWSPLACGIISGKYGNGVPESSRASLKCYQWLKERIVSEEGRKQQNKLKDLSPIAERLGCTLPQLAVAWCLRNEGVSSVLLGSSTPEQLIENLGAIQVLPKMTSHVVNEIDNILRNKPYSKKDYRS", "notes": "also called C-terminus of Kvβ1"}}, "assay_in_all_cases": "yeast two-hybrid (Y190, pGAD10 x pGBT9), β-galactosidase filter assay", "key": {"[1]": {"molecular_target": "T1, KChAP (K+ Channel Associated Protein), full length, in pGAD10 (rat, UniProt O70260 55-628)", "T1 construct": "Yeast two-hybrid construct; also called full length KChAP", "T1 sequence": "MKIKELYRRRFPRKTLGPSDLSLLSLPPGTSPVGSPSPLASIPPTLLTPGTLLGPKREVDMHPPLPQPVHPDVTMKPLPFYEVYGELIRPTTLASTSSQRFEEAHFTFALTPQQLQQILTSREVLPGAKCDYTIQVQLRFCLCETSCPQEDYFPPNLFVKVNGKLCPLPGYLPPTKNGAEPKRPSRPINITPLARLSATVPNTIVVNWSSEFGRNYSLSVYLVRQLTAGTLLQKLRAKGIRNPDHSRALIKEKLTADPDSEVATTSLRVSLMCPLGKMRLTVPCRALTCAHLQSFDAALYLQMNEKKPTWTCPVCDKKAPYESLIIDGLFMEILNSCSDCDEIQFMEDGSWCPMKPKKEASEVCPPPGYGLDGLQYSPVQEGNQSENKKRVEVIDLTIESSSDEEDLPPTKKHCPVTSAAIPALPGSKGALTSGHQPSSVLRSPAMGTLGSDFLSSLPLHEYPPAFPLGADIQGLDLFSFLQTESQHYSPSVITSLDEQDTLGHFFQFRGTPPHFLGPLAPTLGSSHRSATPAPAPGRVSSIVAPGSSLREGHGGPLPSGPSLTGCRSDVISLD", "procedure": "(§1) In the indirect procedure, the yeast Matchmaker Two-Hybrid System Clontech and cDNA molecules encoding KChAP and KChAP-Y were used. The binding specificity between full length KChAP or KChAP-Y and the following Kvα, Kvβ and other K+ channel subunit fragments were determined: Kvβ1.2 (amino acids 1-408), Kvβ1.2-N terminus (amino acids 1-79), Kvβ1C (carboxyl terminal 329 amino acids of the Kvβ1 subfamily), Kvβ2 (amino acids 1-367); Kv1.1-N terminus (amino acids 1-168), Kv1.2 N-terminus (amino acids 1-124), Kv1.4 N-terminus (amino acids 1-305), Kv1.4 C-terminus (amino acids 562-654), Kv1.5 N-terminus (amino acids 1-248), Kv2.1 N-terminus (amino acids 1-168), Kv2.2 N-terminus (amino acids 1-185), Kv6.1 N-terminus (amino acids 1-209), Kir2.2 N-terminus (amino acids 1-86), and HERG N-terminus (amino acids 1-396). The ability of human Gα-binding protein (GBP) to bind to these fragments was also determined.\n(§2) Protein-protein interactions were tested by co-transformation of the yeast host strain Y190 with a pGAD10 plasmid containing inserts encoding KChAP-Y, KChAP or GBP with a pGBT9 plasmid containing an insert encoding one of the K+ channel protein fragments. pGBT9 is a GAL4 DNA binding domain [BD] vector. Co-transformants were plated on medium lacking trp and leu and grown for 2.5 days at 30° C. Yeast colonies were lifted to paper filters and assayed for β-galactosidase activity. Appearance of blue color within 8 hours was scored as a positive interaction between the proteins encoded by the two plasmids."}, "[2]": {"molecular_target": "T2, human Gu binding protein (GBP), in pGAD10 (human, UniProt O75925 55-651, limits assumed)", "T2 construct": "Comparison protein, about 50% homologous to KChAP", "T2 sequence (O75925 55-651 limits assumed)": "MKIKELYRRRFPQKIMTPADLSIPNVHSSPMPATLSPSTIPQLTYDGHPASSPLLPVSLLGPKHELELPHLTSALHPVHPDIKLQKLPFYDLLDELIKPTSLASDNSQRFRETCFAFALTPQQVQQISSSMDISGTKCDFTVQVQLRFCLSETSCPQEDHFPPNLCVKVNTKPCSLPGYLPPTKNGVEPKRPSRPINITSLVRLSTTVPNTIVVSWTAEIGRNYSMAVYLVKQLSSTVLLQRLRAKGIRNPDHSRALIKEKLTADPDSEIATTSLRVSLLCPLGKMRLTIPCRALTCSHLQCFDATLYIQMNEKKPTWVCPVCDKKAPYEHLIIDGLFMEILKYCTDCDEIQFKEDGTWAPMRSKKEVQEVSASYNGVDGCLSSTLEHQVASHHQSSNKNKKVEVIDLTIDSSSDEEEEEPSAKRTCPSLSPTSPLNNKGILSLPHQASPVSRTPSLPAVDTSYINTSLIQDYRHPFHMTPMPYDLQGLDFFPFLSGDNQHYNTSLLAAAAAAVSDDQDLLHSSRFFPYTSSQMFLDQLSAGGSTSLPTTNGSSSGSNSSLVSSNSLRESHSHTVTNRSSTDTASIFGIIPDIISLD", "procedure": "as §1, §2"}, "[3]": {"molecular_target": "B1", "procedure": "as §1, §2"}}, "data": [{"binder": "B1", "values": [{"measurement": "binding result", "setting": "[1]", "value": "no binding"}, {"measurement": "binding result", "setting": "[2]", "value": "no binding"}]}, {"binder": "B2", "values": [{"measurement": "binding result", "setting": "[2]", "value": "no binding"}]}, {"binder": "B3", "values": [{"measurement": "binding result", "setting": "[3]", "value": "no binding"}]}, {"binder": "B4", "values": [{"measurement": "binding result", "setting": "[2]", "value": "no binding"}]}]}
